Assays:
top 1-DNA binding = molecular target: T1, top 1-DNA binding (Homo sapiens, UniProt P11387); assay: Biosensor analysis of the effect of peptide on top 1-DNA binding; details: 50 nM CPP4; top 1 5, 10 and 20 nM; biotinylated linear DNA
T1 construct: made in house; host or cells: Sf9 insect cells (baculovirus) or human placenta
T1 sequence (P11387 1-765): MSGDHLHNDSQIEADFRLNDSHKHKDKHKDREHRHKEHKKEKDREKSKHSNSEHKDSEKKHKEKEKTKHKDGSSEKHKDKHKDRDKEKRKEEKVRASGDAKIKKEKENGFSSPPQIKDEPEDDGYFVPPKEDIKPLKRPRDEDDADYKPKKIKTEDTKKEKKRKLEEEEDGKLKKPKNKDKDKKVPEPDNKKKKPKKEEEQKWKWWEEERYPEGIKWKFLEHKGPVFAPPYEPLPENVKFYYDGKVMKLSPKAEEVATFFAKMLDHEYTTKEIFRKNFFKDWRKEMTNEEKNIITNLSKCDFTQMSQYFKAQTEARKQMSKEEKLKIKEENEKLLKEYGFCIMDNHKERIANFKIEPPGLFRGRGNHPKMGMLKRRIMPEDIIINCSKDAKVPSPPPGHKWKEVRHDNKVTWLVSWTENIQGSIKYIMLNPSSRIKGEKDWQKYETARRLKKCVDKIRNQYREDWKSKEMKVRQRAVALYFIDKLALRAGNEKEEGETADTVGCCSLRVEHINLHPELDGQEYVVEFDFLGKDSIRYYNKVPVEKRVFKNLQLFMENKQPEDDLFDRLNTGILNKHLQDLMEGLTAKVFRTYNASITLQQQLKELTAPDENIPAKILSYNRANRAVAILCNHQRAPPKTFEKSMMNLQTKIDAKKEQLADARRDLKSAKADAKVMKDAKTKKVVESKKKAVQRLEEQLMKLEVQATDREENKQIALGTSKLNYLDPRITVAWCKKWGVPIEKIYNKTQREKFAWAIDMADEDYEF
Procedure: Biotinylated linear DNA was attached to the flow cell via straptavidin. Top 1 (5, 10 and 20 nM) was applied.

HCT 116 tumor = assay: In vivo HCT 116 tumor xenograft in nude mice; set-up: species or system nude (BalbC nu/nu) mice; details: all doses tested, i.p.
Procedure: In vivo mouse studies: HCT 116 cells (4×10^6) were injected into the flanks of nude (BalbC nu/nu) mice for both experiments. The animals were randomized when the tumors were staged at 50 mm^3. In the first experiment, control animals were administered 0.1 ml of vehicle (α-MEM containing 0.05% methylcarboxycellulose and 2% DMSO) i.p., in the absence of peptide (PBS, control #1) or presence of T1BP2-T (control #2, 150 μg in 0.1 ml PBS) or T1BP3-T (control #3, 150 μg in 0.1 ml PBS) injected s.c. at site of tumor. […] Animals treated with 9AC were divided into 4 groups, each containing 5 mice. T1BP-T and PBS subcutaneous injections were administered as described above at the site of the tumor, 30 minutes after the i.p. injection of 9AC in a 50 μl volume. 9AC was dissolved in vehicle. Groups consisted of animals treated with a total of 4 mg/kg 9AC (low dose) in the absence or presence of T1BP2-T or a total of 8 mg/kg 9AC (high dose). Animals were treated with 1 or 2 mg/kg doses, twice a week over 2 weeks. In the second experiment, 18 mice were evaluated in three groups of six animals. Control animals were injected i.p. with 0.1 ml of vehicle (α-MEM containing 0.05% methylcarboxycellulose and 2% DMSO). […]

| Molecule | top 1 dissociation from DNA (top 1-DNA binding) | anti-tumor effect of 9AC alone (HCT 116 tumor) |
| --- | --- | --- |
| DRVPLVHVIFNSFGY [CPP4] | dissociation is slowed | – |
| CC[C@@]1(O)C(=O)OCc2c1cc1n(c2=O)Cc2cc3c(N)cccc3nc2-1 [9AC, 9-amino camptothecin] | – | significant anti-tumor effects |

From US20100137221A1, “PEPTIDES THAT INTERACT WITH TOPOISOMERASE I AND METHODS THEREOF” (UNIVERSITY UTAH RESEARCH FOUNDATION, priority 2007, published 2010)
